Laboratory results reported in the supplement of paper PMC11780869.

Test system: Bacillus subtilis
Assay: cleaved RNA product abundance (RNA/gDNA barcode ratio) relative to median wild-type variant (ratio to wild type); higher = more accumulation of the downstream cleavage product
Conditions: cleavage site: cggR-gapA (positions -7 to +36 mutated)
Outline: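 Oligos with a 9% error rate were used to build barcoded, mutagenized RNase Y cleavage-site windows within truncated aprE or tetM reporter mRNAs, which were integrated into the B. subtilis chromosome. Cultures were grown in LB at 37°C between OD600 0.0003 and 0.3. Cleaved RNA was gel-selected, reverse transcribed and barcode-sequenced, as were genomic DNA barcodes, and UMIs were collapsed. Cleaved product abundance is the scaled RNA:gDNA barcode ratio, with the median construct carrying the unmutated site as reference.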

[1] = experiment (reporter, strain, medium): exp 4a: truncated aprE reporter, strain BJT201 with 2% xylose (RNase J1 expressed)
[2] = experiment (reporter, strain, medium): exp 2b: truncated aprE reporter, strain BJT200

Sequence | cleaved RNA product abundance [1] | cleaved RNA product abundance [2]
ACAGACGAAGGAGCCGCAAAGAAGTTATTAATGGATGAATATTCCCTCAATATAAATATCTCTCACTTATTTAAA | 0.107 | 
ACAGACGAAGGAGCCGCAAAGAAGTTATTAATGGATGAATCATCCCTCAATATAAATATCTCTCACTTATTTAAA | 0.189 | 0.122
ACAGACGAAGGAGCCGCAAAGAAGTTATTAATGGATGAATGATCCCTCAATATAAATATCTCTCACTTATTTAAA | 0.113 | 
ACAGACGAAGGAGCCGCAAAGAAGTTATTAATGGATGAATTATCCCTCAATATAAATATCTCTCACTTATTTAAA | 0.0827 | 0.112
ACAGACGAAGGAGCCGCAAAGAAGTTATTAATGGATGACTAATCCCTCAATATAAATATCTCTCACTTATTTAAA | 0.114 | 0.0938
ACAGACGAAGGAGCCGCAAAGAAGTTATTAATGGATGATTAATCCCTCAATATAAATATCTCTCACTTATTTAAA | 0.138 | 
ACAGACGAAGGAGCCGCAAAGAAGTTATTAATGGATGCATAATCCCTCAATATAAATATCTCTCACTTATTTAAA | 0.169 | 0.133
ACAGACGAAGGAGCCGCAAAGAAGTTATTAATGGATGGATAATCCCTCAATATAAATATCTCTCACTTATTTAAA | 0.143 | 
ACAGACGAAGGAGCCGCAAAGAAGTTATTAATGGATGTATAATCCCTCAATATAAATATCTCTCACTTATTTAAA | 0.211 | 0.0434
ACAGACGAAGGAGCCGCAAAGAAGTTATTAATGGATTAATAATCCCTCAATATAAATATCTCTCACTTATTTAAA | 0.242 | 0.149
ACAGACGAAGGAGCCGCAAAGAAGTTATTAATGGCTGAATAATCCCTCAATATAAATATCTCTCACTTATTTAAA | 0.0644 | 0.11
ACAGACGAAGGAGCCGCAAAGAAGTTATTAATGGGTGAATAATCCCTCAATATAAATATCTCTCACTTATTTAAA | 0.188 | 
ACAGACGAAGGAGCCGCAAAGAAGTTATTAATGGTTGAATAATCCCTCAATATAAATATCTCTCACTTATTTAAA | 0.121 | 0.107
ACAGACGAAGGAGCCGCAAAGAAGTTATTAATGTATGAATAATCCCTCAATATAAATATCTCTCACTTATTTAAA | 0.1 | 0.101
ACAGACGAAGGAGCCGCAAAGAAGTTATTAATTGATGAATAATCCCTCAATATAAATATCTCTCACTTATTTAAA | 0.0964 | 0.0997
ACAGACGAAGGAGCCGCAAAGAAGTTATTACAGGATGAATAATCCCTCAATATAAATATCTCTCACTTATTTAAA | 0.165 | 
ACAGACGAAGGAGCCGCAAAGAAGTTATTACCGGATGAATAATCCCTCAATATAAATATCTCTCACTTATTTAAA | 0.155 | 
ACAGACGAAGGAGCCGCAAAGAAGTTATTACGAGATGAATAATCCCTCAATATAAATATCTCTCACTTATTTAAA | 0.113 | 0.104
ACAGACGAAGGAGCCGCAAAGAAGTTATTACGCGATGAATAATCCCTCAATATAAATATCTCTCACTTATTTAAA | 0.0746 | 
ACAGACGAAGGAGCCGCAAAGAAGTTATTACGGAATGAATAATCCCTCAATATAAATATCTCTCACTTATTTAAA | 0.0966 | 0.1
ACAGACGAAGGAGCCGCAAAGAAGTTATTACGGCATGAATAATCCCTCAATATAAATATCTCTCACTTATTTAAA | 0.204 | 0.0982
